Laboratory results from IntAct's records for PubMed 29039417.

B1: BBSome complex member BBS5 (Homo sapiens), Q8N3I7 (parent)
chain: MSVLDALWEDRDVRFDLSAQQMKTRPGEVLIDCLDSIEDTKGNNGDRGRLLVTNLRILWHSLALSRVNVSVGYNCILNITTRTANSKLRGQTEALYILTKCNSTRFEFIFTNLVPGSPRLFTSVMAVHRAYETSKMYRDFKLRSALIQNKQLRLLPQEHVYDKINGVWNLSSDQGNLGTFFITNVRIVWHANMNDSFNVSIPYLQIRSIKIRDSKFGLALVIESSQQSGGYVLGFKIDPVEKLQESVKEINSLHKVYSASPIFGVDYEMEEKPQPLEALTVEQIQDDVEIDSDGHTDAFVAYFADGNKQQDREPVFSEELGLAIEKLKDGFTLQGLWEVMS
partner: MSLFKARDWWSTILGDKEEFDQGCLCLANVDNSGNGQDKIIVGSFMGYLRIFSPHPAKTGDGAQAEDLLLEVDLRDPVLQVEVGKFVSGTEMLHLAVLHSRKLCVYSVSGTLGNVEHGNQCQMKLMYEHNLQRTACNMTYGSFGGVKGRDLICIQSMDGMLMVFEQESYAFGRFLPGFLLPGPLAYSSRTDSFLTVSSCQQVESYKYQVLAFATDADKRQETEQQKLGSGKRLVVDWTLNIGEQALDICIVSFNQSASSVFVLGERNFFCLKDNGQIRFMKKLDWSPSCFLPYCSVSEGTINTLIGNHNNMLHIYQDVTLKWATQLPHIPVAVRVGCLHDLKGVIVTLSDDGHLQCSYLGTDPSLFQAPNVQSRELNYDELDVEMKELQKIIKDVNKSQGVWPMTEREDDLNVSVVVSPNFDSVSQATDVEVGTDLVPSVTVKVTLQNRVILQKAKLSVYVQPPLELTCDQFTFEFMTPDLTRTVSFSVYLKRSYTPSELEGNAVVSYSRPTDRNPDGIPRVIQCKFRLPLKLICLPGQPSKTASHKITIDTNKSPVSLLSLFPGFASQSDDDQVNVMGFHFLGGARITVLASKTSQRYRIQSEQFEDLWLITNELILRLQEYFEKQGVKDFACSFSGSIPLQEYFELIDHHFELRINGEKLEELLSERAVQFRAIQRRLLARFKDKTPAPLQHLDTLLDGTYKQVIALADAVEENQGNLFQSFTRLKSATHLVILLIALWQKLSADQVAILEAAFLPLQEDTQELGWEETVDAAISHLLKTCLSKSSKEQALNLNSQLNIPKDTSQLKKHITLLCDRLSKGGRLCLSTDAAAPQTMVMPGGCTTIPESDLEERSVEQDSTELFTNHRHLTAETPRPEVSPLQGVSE
B2: BBSome complex member BBS2 (Homo sapiens), Q9BXC9 (parent)
chain: MLLPVFTLKLRHKISPRMVAIGRYDGTHPCLAAATQTGKVFIHNPHTRNQHVSASRVFQSPLESDVSLLSINQAVSCLTAGVLNPELGYDALLVGTQTNLLAYDVYNNSDLFYREVADGANAIVLGTLGDISSPLAIIGGNCALQGFNHEGSDLFWTVTGDNVNSLALCDFDGDGKKELLVGSEDFDIRVFKEDEIVAEMTETEIVTSLCPMYGSRFGYALSNGTVGVYDKTSRYWRIKSKNHAMSIHAFDLNSDGVNELITGWSNGKVDARSDRTGEVIFKDNFSSAIAGVVEGDYRMDGHIQLICCSVDGEIRGYLPGTAEMRGNLMDTSAEQDLIRELSQKKQNLLLELRNYEENAKAELASPLNEADGHRGIIPANTRLHTTLSVSLGNETQTAHTELRISTSNDTIIRAVLIFAEGIFTGESHVVHPSIHNLSSSICIPIVPPKDVPVDLHLKAFVGYRSSTQFHVFESTRQLPRFSMYALTSLDPASEPISYVNFTIAERAQRVVVWLGQNFLLPEDTHIQNAPFQVCFTSLRNGGHLHIKIKLSGEITINTDDIDLAGDIIQSMASFFAIEDLQVEADFPVYFEELRKVLVKVDEYHSVHQKLSADMADHSNLIRSLLVGAEDARLMRDMKTMKSRYMELYDLNRDLLNGYKIRCNNHTELLGNLKAVNQAIQRAGRLRVGKPKNQVITACRDAIRSNNINTLFKIMRVGTASS
partner: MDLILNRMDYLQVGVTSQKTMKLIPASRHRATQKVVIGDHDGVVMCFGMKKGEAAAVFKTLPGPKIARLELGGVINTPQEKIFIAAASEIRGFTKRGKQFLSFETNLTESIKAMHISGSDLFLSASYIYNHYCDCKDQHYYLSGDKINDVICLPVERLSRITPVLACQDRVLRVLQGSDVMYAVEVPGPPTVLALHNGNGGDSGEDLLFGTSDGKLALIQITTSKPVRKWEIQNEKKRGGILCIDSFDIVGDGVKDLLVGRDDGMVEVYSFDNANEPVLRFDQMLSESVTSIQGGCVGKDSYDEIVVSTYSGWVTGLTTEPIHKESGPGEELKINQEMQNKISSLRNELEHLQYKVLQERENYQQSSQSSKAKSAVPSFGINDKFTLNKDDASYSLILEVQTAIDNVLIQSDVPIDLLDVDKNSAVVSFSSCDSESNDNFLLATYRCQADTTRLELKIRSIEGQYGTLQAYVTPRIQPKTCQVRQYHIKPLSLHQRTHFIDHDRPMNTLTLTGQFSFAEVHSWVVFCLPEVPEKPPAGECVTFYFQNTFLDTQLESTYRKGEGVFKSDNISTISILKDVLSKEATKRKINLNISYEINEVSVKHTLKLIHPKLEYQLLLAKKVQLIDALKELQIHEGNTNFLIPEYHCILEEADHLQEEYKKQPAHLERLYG

Variants of: B1
Settings: with pthb1_human BBS9, Q3SYG4

Row | effect of a mutation on the interaction | Variant
1 | with no effect | W8E
2 | with no effect | W8A
3 | with no effect | M1E
4 | with no effect | M1K
5 | with no effect | M1A
6 | with no effect | L7A
7 | with no effect | L7K
8 | with no effect | L7E
9 | with no effect | S2A
10 | with no effect | S2E
11 | with no effect | S2K
12 | with no effect | A6K
13 | with no effect | A6E
14 | with no effect | L4E
15 | with no effect | L4A
16 | with no effect | L4K
17 | with no effect | V3E
18 | with no effect | V3A
19 | with no effect | V3K
20 | with no effect | D5E
21 | with no effect | D5K
22 | with no effect | D5A

Variants of: B2
Settings: with BBS7, Q8IWZ6-2

Row | effect of a mutation on the interaction | Variant
23 | with no effect | L668K
24 | with no effect | L668A
25 | with no effect | L668E
26 | with no effect | N706K
27 | with no effect | N706E
28 | with no effect | N706A
29 | disrupting interaction strength | L685A
30 | disrupting interaction strength | L685E
31 | with no effect | L685K
32 | disrupting interaction strength | N671E
33 | with no effect | N671K
34 | with no effect | N671A
35 | disrupting interaction strength | G688K
36 | disrupting interaction strength | G688R
37 | disrupting interaction strength | G688A
38 | disrupting interaction strength | G688E
39 | with no effect | A719K
40 | with no effect | A719E
41 | with no effect | L672A
42 | with no effect | L672K
43 | with no effect | L672E
44 | with no effect | Q680K
45 | with no effect | Q680A

Row | effect of a mutation on the interaction | Variant
46 | with no effect | Q680E
47 | with no effect | R699K
48 | with no effect | R699A
49 | with no effect | R699E
50 | with no effect | S704E
51 | with no effect | S704A
52 | with no effect | S704K
53 | with no effect | R686K
54 | disrupting interaction strength | R686E
55 | disrupting interaction strength | R686A
56 | with no effect | N692E
57 | with no effect | N692A
58 | with no effect | N692K
59 | with no effect | A701K
60 | with no effect | A701E
61 | with no effect | G717K
62 | with no effect | G717A
63 | with no effect | G717E
64 | with no effect | S720E
65 | with no effect | S720K
66 | with no effect | S720A
67 | with no effect | I707A
68 | with no effect | I707K

Row | effect of a mutation on the interaction | Variant
69 | with no effect | I707E
70 | with no effect | K689A
71 | with no effect | K689E
72 | with no effect | L710E
73 | with no effect | L710K
74 | with no effect | L710A
75 | with no effect | V687K
76 | with no effect | V687A
77 | with no effect | V687E
78 | with no effect | V675A
79 | with no effect | V675K
80 | with no effect | V675E
81 | with no effect | D700K
82 | with no effect | D700A
83 | with no effect | D700E
84 | with no effect | M714E
85 | with no effect | M714A
86 | with no effect | M714K
87 | with no effect | A697K
88 | with no effect | A697E
89 | with no effect | Q693E
90 | with no effect | Q693K
91 | with no effect | Q693A

Row | effect of a mutation on the interaction | Variant
92 | with no effect | S721K
93 | with no effect | S721E
94 | with no effect | S721A
95 | with no effect | T718E
96 | with no effect | T718A
97 | with no effect | T718K
98 | with no effect | N676A
99 | with no effect | N676K
100 | with no effect | N676E
101 | disrupting interaction strength | N676T
102 | with no effect | I702A
103 | with no effect | I702E
104 | with no effect | I702K
105 | with no effect | K712A
106 | with no effect | K712E
107 | with no effect | R703A
108 | with no effect | R703K
109 | with no effect | R703E
110 | with no effect | L669K
111 | with no effect | L669E
112 | with no effect | L669A
113 | with no effect | R684K
114 | with no effect | R684A

Row | effect of a mutation on the interaction | Variant
115 | with no effect | R684E
116 | with no effect | I695K
117 | with no effect | I695E
118 | with no effect | I695A
119 | with no effect | A682E
120 | with no effect | A682K
121 | with no effect | V694E
122 | with no effect | V694A
123 | with no effect | V694K
124 | with no effect | A674K
125 | with no effect | A674E
126 | disrupting interaction strength | G670C
127 | with no effect | G670A
128 | with no effect | G670E
129 | with no effect | G670K
130 | with no effect | K673E
131 | with no effect | K673A
132 | with no effect | K691A
133 | with no effect | K691E
134 | with no effect | R681A
135 | with no effect | R681E
136 | with no effect | R681K
137 | with no effect | G683E

Row | effect of a mutation on the interaction | Variant
138 | with no effect | G683A
139 | with no effect | G683K
140 | with no effect | Q677E
141 | with no effect | Q677A
142 | with no effect | Q677K
143 | with no effect | N708E
144 | with no effect | N708K
145 | with no effect | N708A
146 | with no effect | N705K
147 | with no effect | N705A
148 | with no effect | N705E
149 | disrupting interaction strength | I679A
150 | disrupting interaction strength | I679K
151 | disrupting interaction strength | I679L
152 | disrupting interaction strength | I679E
153 | with no effect | V716K
154 | with no effect | V716E
155 | with no effect | V716A
156 | with no effect | P690K
157 | with no effect | P690A
158 | with no effect | P690E
159 | with no effect | R715E
160 | with no effect | R715K

Row | effect of a mutation on the interaction | Variant
161 | with no effect | R715A
162 | with no effect | A678K
163 | with no effect | A678E
164 | with no effect | T709E
165 | with no effect | T709A
166 | with no effect | T709K
167 | with no effect | C698K
168 | with no effect | C698A
169 | with no effect | C698E
170 | with no effect | F711E
171 | with no effect | F711A
172 | with no effect | F711K
173 | with no effect | T696A
174 | with no effect | T696E
175 | with no effect | T696K
176 | with no effect | I713E
177 | with no effect | I713K
178 | with no effect | I713A

Variants of: B2
Settings: with BBS7, Q8IWZ6-2
Remark: another data set of the same source

Row | effect of a mutation on the interaction | Variant
179 | disrupting interaction strength | S365R
